Measured values from paper PMC2602781.
One block for each molecule: values may come before it.

Columns and labels:
[1] = target: I-Vdi141I … homing endonuclease, wild type (Vulcanisaeta distributa strain IC-141); assay: SEC
[2] = target: T1, I-Vdi141I I65M/I107M (selenomethionyl) (V. distributa strain IC-141, UniProt Q6L703 1-169, I65M;I107M); assay: X-ray crystallography
T1 sequence: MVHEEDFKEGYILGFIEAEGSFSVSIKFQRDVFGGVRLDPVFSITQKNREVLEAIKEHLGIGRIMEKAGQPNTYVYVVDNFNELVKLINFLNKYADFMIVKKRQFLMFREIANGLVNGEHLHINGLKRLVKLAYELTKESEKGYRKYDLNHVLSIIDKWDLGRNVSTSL

stoichiometry N [1]: 2
Molecule: I-Vdi141I … homing endonuclease, wild type (enzyme)

B1: 22 bp I-Vdi141I target site duplex (dsDNA)
DNA 1: CTGACTCTCTTAAGGTAGCCAA
DNA 2: TTGGCTACCTTAAGAGAGTCAG
binding result [2]: binds
